According to US20030157096A1 (ZymoGenetics, published 2003):

Key:
[1] = molecular target: T1, CRF2-4 receptor, full-length, on transfected BaF3 or BHK cells (CRF2-4 alone) (UniProt Q08334 20-325, limits assumed); assay: flow cytometry, biotinylated IL-TIF-CEE plus PE-streptavidin on BaF3 transfectants (same results stated for BHK transfectants)
T1 construct: whole, on cells; The full-length receptor on cells is tied only to Genbank Z17227; also called CFR2-4; BaF3/CRF2-4
T1 sequence (looked up): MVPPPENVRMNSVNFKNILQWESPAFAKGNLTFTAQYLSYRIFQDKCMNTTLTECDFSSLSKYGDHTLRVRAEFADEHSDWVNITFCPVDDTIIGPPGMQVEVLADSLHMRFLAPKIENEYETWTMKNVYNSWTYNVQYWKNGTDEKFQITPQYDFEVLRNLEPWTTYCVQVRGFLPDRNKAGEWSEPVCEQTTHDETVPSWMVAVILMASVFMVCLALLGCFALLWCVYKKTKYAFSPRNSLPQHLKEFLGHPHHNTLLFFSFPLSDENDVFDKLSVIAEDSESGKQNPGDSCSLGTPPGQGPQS
Text: (§1) To test the binding properties of the IL-TIF ligand to several potential receptor components, BaF3 and BHK cells were transfected with expression plasmids including zcytor11 alone, CRF2-4 alone (Genbank Accession No. Z17227), zcytor11 (SEQ ID NO:1) and CRF2-4, or zcytoR11 and pDIRS1 (WIPO Publication WO99/46379, Schering Corporation, 1999), as described above. Untransfected BaF3 and BHK cells were included as controls. Cells were resuspended in FACS wash buffer (WB: PBS/1%BSA, supplemented with 3% human Ultraserum (Gemini BioProducts, Calabasas, Calif.)) counted and 1×10⁶ of each type were aliquoted into 5 ml polystyrene tubes. Cells were washed and pelleted, then incubated for 20 min on ice with 100 μl of WB only, or WB plus 10 μg/ml or 1 μg/ml biotinylated zcytolO protein. Cells were washed with 1.5 ml WB and pelleted, then incubated in 100 μl of 2.5 μg/ml phycoerthyrin-conjugated streptavidin (PE-SA, PharMingen, San Diego, Calif.) for another 20 min on ice. Cells were washed as before, resuspended in 0.4 ml of WB and analyzed on a FACScan using CellQuest software (Becton Dickinson, Mountain View, Calif.).

[2] = molecular target: T2, zcytor11 receptor, full-length, on transfected BaF3 or BHK cells (zcytor11 alone) (human, UniProt Q8N6P7 18-574); assay: flow cytometry, biotinylated IL-TIF-CEE at 10 or 1 µg/ml plus PE-streptavidin on BaF3 transfectants (same results stated for BHK transfectants)
T2 construct: also called BaF3/zcytor11
T2 sequence: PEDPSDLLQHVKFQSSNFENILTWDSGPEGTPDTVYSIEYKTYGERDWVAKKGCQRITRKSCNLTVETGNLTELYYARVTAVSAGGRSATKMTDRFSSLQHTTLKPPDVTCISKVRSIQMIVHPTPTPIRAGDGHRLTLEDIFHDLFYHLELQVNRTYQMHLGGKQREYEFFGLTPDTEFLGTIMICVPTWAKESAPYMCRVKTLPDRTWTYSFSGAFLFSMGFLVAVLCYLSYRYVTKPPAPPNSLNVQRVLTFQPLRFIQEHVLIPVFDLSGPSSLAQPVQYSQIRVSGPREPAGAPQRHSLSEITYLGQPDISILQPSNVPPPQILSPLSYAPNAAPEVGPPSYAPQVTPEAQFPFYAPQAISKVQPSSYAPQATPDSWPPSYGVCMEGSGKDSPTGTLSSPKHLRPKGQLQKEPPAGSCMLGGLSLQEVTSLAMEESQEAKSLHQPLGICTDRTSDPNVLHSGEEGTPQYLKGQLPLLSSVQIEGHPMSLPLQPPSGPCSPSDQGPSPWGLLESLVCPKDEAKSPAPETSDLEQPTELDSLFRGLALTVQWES
Text: as §1

[3] = molecular target: T3, zcytor11 and CRF2-4 receptors co-expressed on transfected BaF3 or BHK cells (human, UniProt Q08334 20-325, limits assumed); assay: as above
T3 construct: whole, on cells; The two receptor subunits are co-transfected in one cell line; also called zcytor11/CRF2-4; BaF3/zcytor11/CRF2-4
T3 sequence 1: T2 sequence
T3 sequence 2: T1 sequence (looked up)
Text: as §1

B1: biotinylated human IL-TIF-CEE (ligand)
chain: APISSHCRLDKSNFQQPYITNRTFMLAKEASLADNNTDVRLIGEKLFHGVSMSERCYLMKQVLNFTLEEVLFPQSDRFQPYMQEVVPFLARLSNRLSTCHIEGDDLHIQRNVQKLKDTVKKLGESGEIKAIGELDLLFMSLRNACIEYMPME
modifications: biotinylated with EZ-link Sulfo-NHS-LC-biotin (sites not given)
notes: also called biotin-IL-TIF; IL-TIF ligand
B1: no binding (tested: 10 µg/ml or 1 µg/ml biotinylated protein) [1]; binds [2]; binds [3].
